Biological target: anti-TSLP-scFv-Fc-M4 (mutated recombinant antibody) (human)
Experiment: BLI

thymic stromal lymphopoietin (TSLP), standard recombinant human TSLP protein (from UniProt Q969D9 29-159) (ligand)
fold change of affinity against scFv-Fc-84: 10 fold

Source: article PMC6947841
